The values that follow come from article PMC9616523.

The target of assay [1] is human FcγRIIIa (human) (UniProt P08637).
The target in assay [2] is human FcγRI (human) (UniProt P12314). In words: SPR; Biacore T200; hFcγRI captured on an NTA chip loaded with Ni2+ (≈200 RU); AvFc flowed over, 5 concentrations from 324 nM in 1:3 dilutions; regeneration 350 mM EDTA; 1:1 binding model. A general note: SPR reads the build-up and loss of mass on a sensor chip optically.
Assay [3] addresses human FcγRIIIa (human) (UniProt P08637). As to the kind of experiment: SPR; Biacore T200; receptor captured by its 6xHis tag on an anti‐6xHis antibody amine‐coupled to a CM5 chip; AvFc variants flowed over, 5 concentrations from 2 μM in 1:2 dilutions, 30 μL/min, 240 s association, 600 s dissociation; 1:1 binding model.
Assay [4] addresses mouse FcγRIV (mouse). The description is as above.

Sequence of human FcγRI (human) (P12314 16-292): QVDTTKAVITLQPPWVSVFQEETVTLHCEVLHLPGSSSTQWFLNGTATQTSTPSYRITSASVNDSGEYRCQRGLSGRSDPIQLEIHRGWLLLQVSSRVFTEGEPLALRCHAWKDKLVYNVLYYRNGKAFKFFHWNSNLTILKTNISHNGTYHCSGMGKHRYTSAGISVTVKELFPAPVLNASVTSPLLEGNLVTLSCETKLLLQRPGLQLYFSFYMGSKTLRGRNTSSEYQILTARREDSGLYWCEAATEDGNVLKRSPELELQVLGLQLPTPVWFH
Sequence of mouse FcγRIV (mouse) (A0A0B4J1G0 21-203): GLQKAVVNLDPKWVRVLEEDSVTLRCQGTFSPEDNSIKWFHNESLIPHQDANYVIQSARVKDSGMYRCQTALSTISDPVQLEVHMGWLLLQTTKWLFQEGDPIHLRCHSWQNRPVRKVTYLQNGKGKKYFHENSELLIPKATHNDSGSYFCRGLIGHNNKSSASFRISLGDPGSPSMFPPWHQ

In assay [1], “Avaren‐Fc expressed in wild‐type N. benthamiana (AvFc^WT) (Fc fusion)” came in with an ADCC reporter assay: luciferase in Jurkat effector cells expressing hFcγRIIIa, B16F10 target cells, AvFc 650 nM to 8.32 pM; EC50 of 13.8 nM and an ADCC reporter assay: luciferase in Jurkat effector cells expressing hFcγRIIIa, B16F10 target cells, AvFc 650 nM to 8.32 pM; highest luciferase induction of 2.9 fold.

In assay [1], “Avaren‐Fc expressed in glycoengineered ΔXylT/ΔFucT N. benthamiana (AvFc^ΔXF) (Fc fusion)” showed an ADCC reporter assay: luciferase in Jurkat effector cells expressing hFcγRIIIa, B16F10 target cells, AvFc 650 nM to 8.32 pM; EC50 of 2.75 nM. In assay [1], this substance had an ADCC reporter assay: luciferase in Jurkat effector cells expressing hFcγRIIIa, B16F10 target cells, AvFc 650 nM to 8.32 pM; highest luciferase induction of 5.5 fold. The results for the fold increase in affinity over AvFc^WT in assay [2], in assay [3] and in assay [4] were 1.9 fold, 3.8 fold and 5.5 fold, respectively.
